Measured values published in US20100310640A1.
Each block holds one binder with its values, some of them ahead of it.

Tests used:
Conditions in all cases: remark: other sources report otherwise
HLA-DR DRB1*0405 (human) [1] = target: T1, HLA-DR DRB1*0405 (human); experiment: radioligand inhibition, purified HLA-DR
T1 chain 1: not shown
T1 chain 2: not shown

HLA-DR DRB1*0802 (human) = target: T2, HLA-DR DRB1*0802 (human); experiment: radioligand inhibition, purified HLA-DR
T2 chain 1: not shown
T2 chain 2: not shown

HLA-DR DRB1*0301 (human) [2] = target: T3, HLA-DR DRB1*0301 (human); experiment: radiolabeled-peptide inhibition, purified HLA-DR
T3 chain 1: not shown
T3 chain 2: not shown

HLA-DR DRB1*0405 (human) [3] = target: T1, HLA-DR DRB1*0405 (human); experiment: radiolabeled-peptide inhibition, purified HLA-DR
HLA-DR DRB1*0701 (human) [4] = target: T4, HLA-DR DRB1*0701 (human); experiment: radiolabeled-peptide inhibition, purified HLA-DR
T4 chain 1: not shown
T4 chain 2: not shown

HLA-DR DRB1*1101 (human) [5] = target: T5, HLA-DR DRB1*1101 (human); experiment: radiolabeled-peptide inhibition, purified HLA-DR
T5 chain 1: not shown
T5 chain 2: not shown

HLA-DR DRB1*1302 (human) [6] = target: T6, HLA-DR DRB1*1302 (human); experiment: radiolabeled-peptide inhibition, purified HLA-DR
T6 chain 1: not shown
T6 chain 2: not shown

HLA-DR DRB4*0101 (human) [7] = target: T7, HLA-DR DRB4*0101 (human); experiment: radiolabeled-peptide inhibition, purified HLA-DR
T7 chain 1: not shown
T7 chain 2: not shown

HLA-DR DRB1*0101 (human) [8] = target: T8, HLA-DR DRB1*0101 (human); experiment: radiolabeled-peptide inhibition, purified HLA-DR
T8 chain 1: not shown
T8 chain 2: not shown

HLA-DR DRB1*0401 (human) [9] = target: T9, HLA-DR DRB1*0401 (human); experiment: radiolabeled-peptide inhibition, purified HLA-DR
T9 chain 1: not shown
T9 chain 2: not shown

HLA-DR DRB1*0101 (human) [10] = target: T8, HLA-DR DRB1*0101 (human); experiment: radioligand inhibition, purified HLA-DR
HLA-DR DRB1*0301 (human) [11] = target: T3, HLA-DR DRB1*0301 (human); experiment: radioligand inhibition, purified HLA-DR
HLA-DR DRB1*0401 (human) [12] = target: T9, HLA-DR DRB1*0401 (human); experiment: radioligand inhibition, purified HLA-DR
HLA-DR DRB1*0701 (human) [13] = target: T4, HLA-DR DRB1*0701 (human); experiment: radioligand inhibition, purified HLA-DR
HLA-DR DRB1*1201 (human) = target: T10, HLA-DR DRB1*1201 (human); experiment: radioligand inhibition, purified HLA-DR
T10 chain 1: not shown
T10 chain 2: not shown

HLA-DR DRB1*1302 (human) [14] = target: T6, HLA-DR DRB1*1302 (human); experiment: radioligand inhibition, purified HLA-DR
HLA-DR DRB4*0101 (human) [15] = target: T7, HLA-DR DRB4*0101 (human); experiment: radioligand inhibition, purified HLA-DR
HLA-DR DRB1*0404 (human) [16] = target: T11, HLA-DR DRB1*0404 (human); experiment: radiolabeled-peptide inhibition, purified HLA-DR
T11 chain 1: not shown
T11 chain 2: not shown

HLA-DR DRB5*0101 (human) [17] = target: T12, HLA-DR DRB5*0101 (human); experiment: radiolabeled-peptide inhibition, purified HLA-DR
T12 chain 1: not shown
T12 chain 2: not shown

HLA-DR DRB1*0404 (human) [18] = target: T11, HLA-DR DRB1*0404 (human); experiment: radioligand inhibition, purified HLA-DR
HLA-DR DRB1*0901 (human) = target: T13, HLA-DR DRB1*0901 (human); experiment: radioligand inhibition, purified HLA-DR
T13 chain 1: not shown
T13 chain 2: not shown

HLA-DR DRB1*1101 (human) [19] = target: T5, HLA-DR DRB1*1101 (human); experiment: radioligand inhibition, purified HLA-DR
HLA-DR DRB5*0101 (human) [20] = target: T12, HLA-DR DRB5*0101 (human); experiment: radioligand inhibition, purified HLA-DR
HLA-DR DRB1*0404 (human) [21] = target: T11, HLA-DR DRB1*0404 (human); experiment: radioligand competition, purified HLA-DR
HLA-DR DRB1*1101 (human) [22] = target: T5, HLA-DR DRB1*1101 (human); experiment: radioligand competition, purified HLA-DR
HLA-DR DRB1*1302 (human) [23] = target: T6, HLA-DR DRB1*1302 (human); experiment: radioligand competition, purified HLA-DR
HLA-DR DRB4*0101 (human) [24] = target: T7, HLA-DR DRB4*0101 (human); experiment: radioligand competition, purified HLA-DR

B2: 9019.0002 (peptide)
peptide: GMSYLEDVRLVHRDL
IC50 (HLA-DR DRB1*0301 (human) [2]): 27 nM
IC50 (HLA-DR DRB1*0405 (human) [3]): 4320 nM
IC50 (HLA-DR DRB1*0701 (human) [4]): 5410 nM
IC50 (HLA-DR DRB1*1101 (human) [5]): 244 nM
IC50 (HLA-DR DRB1*1302 (human) [6]): 3790 nM
IC50 (HLA-DR DRB4*0101 (human) [7]): 2540 nM

B3: 9019.0064 (peptide)
peptide: LQGLPREYVNARHCL
IC50 (HLA-DR DRB1*0101 (human) [8]): 354 nM
IC50 (HLA-DR DRB1*0301 (human) [2]): 9000 nM
IC50 (HLA-DR DRB1*0401 (human) [9]): 201 nM
IC50 (HLA-DR DRB1*0701 (human) [4]): 1900 nM
IC50 (HLA-DR DRB1*1302 (human) [6]): 670 nM
IC50 (HLA-DR DRB4*0101 (human) [7]): 2550 nM

B6: 9019.0048 (peptide)
peptide: PESFDGDPASNTAPL
IC50 (HLA-DR DRB1*0301 (human) [2]): 989 nM
IC50 (HLA-DR DRB1*0404 (human) [16]): 9020 nM
IC50 (HLA-DR DRB1*0701 (human) [4]): 2820 nM
IC50 (HLA-DR DRB1*1101 (human) [5]): 12600 nM
IC50 (HLA-DR DRB1*1302 (human) [6]): 3900 nM

B7: 9019.0067 (peptide)
peptide: ISAVVGILLVVVLGV
IC50 (HLA-DR DRB1*0401 (human) [9]): 420 nM
IC50 (HLA-DR DRB1*0404 (human) [16]): 3000 nM
IC50 (HLA-DR DRB1*0405 (human) [3]): 447 nM
IC50 (HLA-DR DRB1*0701 (human) [4]): 941 nM
IC50 (HLA-DR DRB1*1302 (human) [6]): 443 nM
IC50 (HLA-DR DRB4*0101 (human) [7]): 3110 nM

B8: 9019.0089 (peptide)
peptide: SDVWSYGVTVWELMT
IC50 (HLA-DR DRB1*0401 (human) [9]): 2760 nM
IC50 (HLA-DR DRB1*0405 (human) [3]): 1900 nM
IC50 (HLA-DR DRB1*1101 (human) [5]): 2640 nM
IC50 (HLA-DR DRB5*0101 (human) [17]): 5420 nM

B9: 9019.0077 (peptide)
peptide: AYVMAGVGSPYVSRL
IC50 (HLA-DR DRB1*0101 (human) [8]): 92 nM
IC50 (HLA-DR DRB1*0405 (human) [3]): 596 nM
IC50 (HLA-DR DRB1*1302 (human) [6]): 402 nM
IC50 (HLA-DR DRB4*0101 (human) [7]): 5060 nM
IC50 (HLA-DR DRB5*0101 (human) [17]): 308 nM

B11: 9019.0062 (peptide)
peptide: SQFLRGQECVEECRV
IC50 (HLA-DR DRB1*0101 (human) [8]): 462 nM
IC50 (HLA-DR DRB1*0401 (human) [9]): 1020 nM
IC50 (HLA-DR DRB1*0404 (human) [16]): 4550 nM
IC50 (HLA-DR DRB1*0701 (human) [4]): 540 nM
IC50 (HLA-DR DRB5*0101 (human) [17]): 7040 nM

B13: CEA.10 peptide 9019.0104 (peptide)
peptide: RWCIPWQRLLLTASL
IC50 (HLA-DR DRB1*0301 (human) [11]): 7860 nM
IC50 (HLA-DR DRB1*0802 (human)): 263 nM
IC50 (HLA-DR DRB1*1201 (human)): 1560 nM
IC50 (HLA-DR DRB1*1302 (human) [14]): 2330 nM

B14: 9019.0068 (peptide)
peptide: ILLVVVLGVVFGILI
IC50 (HLA-DR DRB1*0401 (human) [9]): 635 nM
IC50 (HLA-DR DRB1*0404 (human) [16]): 3530 nM
IC50 (HLA-DR DRB1*0405 (human) [3]): 376 nM
IC50 (HLA-DR DRB1*0701 (human) [4]): 780 nM
IC50 (HLA-DR DRB1*1101 (human) [5]): 2460 nM
IC50 (HLA-DR DRB1*1302 (human) [6]): 478 nM
IC50 (HLA-DR DRB4*0101 (human) [7]): 11000 nM

Other lines, results leading:

IC50 (HLA-DR DRB1*0405 (human) [1]): 34 nM
IC50 (HLA-DR DRB1*0802 (human)): 260 nM
B1: Peptide 9019.0185 (peptide)
peptide: LKSGMKELAVFREKV

IC50 (HLA-DR DRB1*0101 (human) [10]): 4030 nM
IC50 (HLA-DR DRB1*0301 (human) [11]): 31 nM
IC50 (HLA-DR DRB1*0401 (human) [12]): 1640 nM
IC50 (HLA-DR DRB1*0701 (human) [13]): 16800 nM
IC50 (HLA-DR DRB1*1201 (human)): 16900 nM
IC50 (HLA-DR DRB1*1302 (human) [14]): 1670 nM
IC50 (HLA-DR DRB4*0101 (human) [15]): 2510 nM
B4: Peptide 9019.0022 (peptide)
peptide: APTIRGDPECHLFYN

IC50 (HLA-DR DRB1*0101 (human) [10]): 6.8 nM
IC50 (HLA-DR DRB1*0802 (human)): 1400 nM
IC50 (HLA-DR DRB1*1302 (human) [14]): 55 nM
IC50 (HLA-DR DRB4*0101 (human) [15]): 91 nM
B5: Cyclin D1.109 (peptide)
peptide: PPSMVAAGSVVAAVQ

IC50 (HLA-DR DRB1*0401 (human) [12]): 840 nM
IC50 (HLA-DR DRB1*0404 (human) [18]): 78 nM
IC50 (HLA-DR DRB1*0405 (human) [1]): 1300 nM
IC50 (HLA-DR DRB1*0701 (human) [13]): 80 nM
IC50 (HLA-DR DRB1*0802 (human)): 9 nM
IC50 (HLA-DR DRB1*0901 (human)): 6940 nM
IC50 (HLA-DR DRB1*1101 (human) [19]): 21 nM
IC50 (HLA-DR DRB1*1201 (human)): 42 nM
IC50 (HLA-DR DRB1*1302 (human) [14]): 270 nM
IC50 (HLA-DR DRB4*0101 (human) [15]): 18 nM
B10: Her/neu.88 (peptide)
peptide: HNQVRQVPLQRLRIV

IC50 (HLA-DR DRB1*0101 (human) [10]): 26 nM
IC50 (HLA-DR DRB1*0301 (human) [11]): 6220 nM
IC50 (HLA-DR DRB1*0401 (human) [12]): 38 nM
IC50 (HLA-DR DRB1*0404 (human) [18]): 62 nM
IC50 (HLA-DR DRB1*0405 (human) [1]): 151 nM
IC50 (HLA-DR DRB1*0701 (human) [13]): 309 nM
IC50 (HLA-DR DRB1*0802 (human)): 376 nM
IC50 (HLA-DR DRB1*0901 (human)): 2320 nM
IC50 (HLA-DR DRB1*1101 (human) [19]): 125 nM
IC50 (HLA-DR DRB4*0101 (human) [15]): 351 nM
IC50 (HLA-DR DRB5*0101 (human) [20]): 26 nM
B12: Peptide 9019.0095 (peptide)
peptide: RPRFRELVSEFSRMA

IC50 (HLA-DR DRB1*0404 (human) [21]): 41 nM
IC50 (HLA-DR DRB1*1101 (human) [22]): 6000 nM
IC50 (HLA-DR DRB1*1302 (human) [23]): 35 nM
IC50 (HLA-DR DRB4*0101 (human) [24]): 53 nM
B15: CEA.33 (peptide 9019.0106) (peptide)
peptide: TAKLTIESTPFNVAE
